One molecule from US20250011739, “ENGINEERED CAS PROTEIN AND USE THEREOF” (SHANDONG SHUNFENG BIOTECHNOLOGY CO.LTD., published 2025) can be followed below.

Holding throughout (assay): cell_activity; PAM ATG; GFP reporter in CHO cells
For data set [1], the target named is T1, Cas12j19 E100K-S400R-L763R (E100K,S400R,L763R).
T1 chain: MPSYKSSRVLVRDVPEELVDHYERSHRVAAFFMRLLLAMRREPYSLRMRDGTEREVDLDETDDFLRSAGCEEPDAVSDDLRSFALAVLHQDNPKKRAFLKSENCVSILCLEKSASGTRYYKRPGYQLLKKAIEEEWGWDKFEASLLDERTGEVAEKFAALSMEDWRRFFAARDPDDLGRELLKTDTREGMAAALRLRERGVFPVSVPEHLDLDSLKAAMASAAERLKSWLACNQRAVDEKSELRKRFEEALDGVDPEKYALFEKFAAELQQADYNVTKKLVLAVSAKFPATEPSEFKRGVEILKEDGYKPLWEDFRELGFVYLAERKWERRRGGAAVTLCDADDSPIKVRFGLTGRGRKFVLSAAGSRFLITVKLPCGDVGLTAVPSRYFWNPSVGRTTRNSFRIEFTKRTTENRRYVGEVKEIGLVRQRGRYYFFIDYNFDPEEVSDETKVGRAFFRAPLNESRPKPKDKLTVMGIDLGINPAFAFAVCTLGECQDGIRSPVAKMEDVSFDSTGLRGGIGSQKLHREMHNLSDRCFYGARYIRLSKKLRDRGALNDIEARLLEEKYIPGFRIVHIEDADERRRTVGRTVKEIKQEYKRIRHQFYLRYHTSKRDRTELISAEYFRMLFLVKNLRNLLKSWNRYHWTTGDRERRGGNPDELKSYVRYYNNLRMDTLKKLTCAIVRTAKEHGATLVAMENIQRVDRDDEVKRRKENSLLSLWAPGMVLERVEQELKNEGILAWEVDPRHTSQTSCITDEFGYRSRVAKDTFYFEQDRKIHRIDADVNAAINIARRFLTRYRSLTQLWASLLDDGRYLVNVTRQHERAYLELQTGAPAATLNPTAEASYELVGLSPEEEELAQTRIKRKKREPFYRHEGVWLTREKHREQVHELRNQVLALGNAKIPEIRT
From the text:
(§1) With reference to (Yang, Yi, et al. “Highly efficient and rapid detection of the cleavage activity of Cas9/gRNA via a fluorescent reporter.” Applied biochemistry and biotechnology 180.4 (2016): 655-667.), a fluorescent reporter system for verification of Cas12j19 cleavage was constructed, where a fluorescent reporter vector carried an RFP and a non-luminous GFFP, and a Cas vector carried a CFP. A target FUT8-3: […] (SEQ ID NO: 28) on a GFFP sequence was selected for testing, where an underlined part was a PAM sequence. A DR sequence was […] (SEQ ID NO: 29). 48 h after a CHO cell was transfected, a proportion of GFP fluorescence in CFP and RFP fluorescence was determined by FCM to determine an editing efficiency.
(§2) In this example, in SEQ ID NO: 19, an amino acid 100 was mutated into K, an amino acid 400 was mutated into R, and an amino acid 763 was mutated into R to obtain a three site-mutated protein E100K-S400R-L763R; and in SEQ ID NO: 19, an amino acid 100 was mutated into K, an amino acid 400 was mutated into R, an amino acid 763 was mutated into R, and an amino acid 45 was mutated into T to obtain a four site-mutated protein E100K-S400R-L763R-S45T.

The target in the data set “enCas-SF02 (Cas12j19 …)” is T2, enCas-SF02 (Cas12j19 E100K-S400R-L763R-S45T) (E100K,S400R,L763R,S45T).
T2 chain: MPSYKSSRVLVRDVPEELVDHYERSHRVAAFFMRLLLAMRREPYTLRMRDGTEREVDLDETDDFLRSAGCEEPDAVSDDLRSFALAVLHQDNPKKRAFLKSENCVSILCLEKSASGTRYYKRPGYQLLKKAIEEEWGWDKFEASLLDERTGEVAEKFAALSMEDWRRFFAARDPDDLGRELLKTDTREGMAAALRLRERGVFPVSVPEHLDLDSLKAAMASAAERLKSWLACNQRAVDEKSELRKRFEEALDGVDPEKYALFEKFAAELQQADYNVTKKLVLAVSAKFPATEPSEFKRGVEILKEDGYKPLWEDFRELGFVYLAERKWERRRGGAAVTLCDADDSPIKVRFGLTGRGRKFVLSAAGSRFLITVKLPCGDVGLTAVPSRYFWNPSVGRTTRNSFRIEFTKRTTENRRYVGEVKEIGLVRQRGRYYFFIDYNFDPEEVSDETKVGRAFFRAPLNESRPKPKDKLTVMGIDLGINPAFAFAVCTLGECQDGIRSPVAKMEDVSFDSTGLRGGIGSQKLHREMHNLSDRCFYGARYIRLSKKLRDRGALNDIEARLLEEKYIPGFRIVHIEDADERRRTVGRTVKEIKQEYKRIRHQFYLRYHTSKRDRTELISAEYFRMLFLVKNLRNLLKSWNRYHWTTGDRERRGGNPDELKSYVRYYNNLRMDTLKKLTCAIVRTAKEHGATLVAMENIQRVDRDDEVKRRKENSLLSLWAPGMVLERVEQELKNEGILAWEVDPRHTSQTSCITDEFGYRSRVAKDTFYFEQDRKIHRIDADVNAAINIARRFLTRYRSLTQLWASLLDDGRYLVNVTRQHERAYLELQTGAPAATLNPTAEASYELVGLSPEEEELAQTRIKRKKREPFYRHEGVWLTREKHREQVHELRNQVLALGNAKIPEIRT
Excerpt: as §1, §2

The target in another data set is T3, Cas12j19 WT.
T3 chain: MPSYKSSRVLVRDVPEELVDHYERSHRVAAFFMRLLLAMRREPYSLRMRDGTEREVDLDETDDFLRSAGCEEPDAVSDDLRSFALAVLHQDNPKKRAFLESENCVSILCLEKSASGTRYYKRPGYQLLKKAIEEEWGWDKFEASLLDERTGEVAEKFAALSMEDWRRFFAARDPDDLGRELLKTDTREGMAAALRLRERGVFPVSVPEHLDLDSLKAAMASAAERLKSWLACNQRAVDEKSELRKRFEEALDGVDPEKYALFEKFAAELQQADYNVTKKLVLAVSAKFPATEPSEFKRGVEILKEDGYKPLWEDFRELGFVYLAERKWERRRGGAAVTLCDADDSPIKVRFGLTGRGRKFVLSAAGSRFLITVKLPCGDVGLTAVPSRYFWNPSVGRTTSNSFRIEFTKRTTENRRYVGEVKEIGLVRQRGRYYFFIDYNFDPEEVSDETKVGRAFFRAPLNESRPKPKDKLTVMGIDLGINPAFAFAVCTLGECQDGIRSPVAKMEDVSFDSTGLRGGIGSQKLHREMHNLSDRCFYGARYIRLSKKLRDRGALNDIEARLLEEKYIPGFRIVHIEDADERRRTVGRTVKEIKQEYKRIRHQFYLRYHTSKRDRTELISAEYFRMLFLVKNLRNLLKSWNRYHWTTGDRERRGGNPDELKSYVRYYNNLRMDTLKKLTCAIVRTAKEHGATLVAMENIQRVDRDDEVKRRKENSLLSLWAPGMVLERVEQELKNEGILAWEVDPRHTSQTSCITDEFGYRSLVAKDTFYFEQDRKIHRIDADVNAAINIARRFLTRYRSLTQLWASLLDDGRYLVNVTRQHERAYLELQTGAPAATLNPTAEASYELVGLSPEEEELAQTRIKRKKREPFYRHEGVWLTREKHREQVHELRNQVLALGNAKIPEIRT
Excerpt: as §1, §2

B1: Cas12j19 FUT8-3 guide (DR + spacer, order inferred) ; FUT8-3 target (ssRNA ; dsDNA)
RNA: GUGCUGCUGUCUCCCAGACGGGAGGCAGAACUGCACGAGGCUGUCUACAAUGGGGA
DNA 1: ATGGAGGCTGTCTACAATGGGGA
DNA 2: TCCCCATTGTAGACAGCCTCCAT
B1: the values for the activity (in data set [1]; with enCas-SF02 (Cas12j19 …); with Cas12j19 WT) were around 90%, around 90% and around 6%, respectively.
